Source: article PMC10786891, “Massively parallel profiling of RNA-targeting CRISPR-Cas13d”

T1: EsCas13d, nuclease-dead (Eubacterium siraeum, UniProt B0MS50, R295A;H300A;R849A;H854A)
T1 sequence: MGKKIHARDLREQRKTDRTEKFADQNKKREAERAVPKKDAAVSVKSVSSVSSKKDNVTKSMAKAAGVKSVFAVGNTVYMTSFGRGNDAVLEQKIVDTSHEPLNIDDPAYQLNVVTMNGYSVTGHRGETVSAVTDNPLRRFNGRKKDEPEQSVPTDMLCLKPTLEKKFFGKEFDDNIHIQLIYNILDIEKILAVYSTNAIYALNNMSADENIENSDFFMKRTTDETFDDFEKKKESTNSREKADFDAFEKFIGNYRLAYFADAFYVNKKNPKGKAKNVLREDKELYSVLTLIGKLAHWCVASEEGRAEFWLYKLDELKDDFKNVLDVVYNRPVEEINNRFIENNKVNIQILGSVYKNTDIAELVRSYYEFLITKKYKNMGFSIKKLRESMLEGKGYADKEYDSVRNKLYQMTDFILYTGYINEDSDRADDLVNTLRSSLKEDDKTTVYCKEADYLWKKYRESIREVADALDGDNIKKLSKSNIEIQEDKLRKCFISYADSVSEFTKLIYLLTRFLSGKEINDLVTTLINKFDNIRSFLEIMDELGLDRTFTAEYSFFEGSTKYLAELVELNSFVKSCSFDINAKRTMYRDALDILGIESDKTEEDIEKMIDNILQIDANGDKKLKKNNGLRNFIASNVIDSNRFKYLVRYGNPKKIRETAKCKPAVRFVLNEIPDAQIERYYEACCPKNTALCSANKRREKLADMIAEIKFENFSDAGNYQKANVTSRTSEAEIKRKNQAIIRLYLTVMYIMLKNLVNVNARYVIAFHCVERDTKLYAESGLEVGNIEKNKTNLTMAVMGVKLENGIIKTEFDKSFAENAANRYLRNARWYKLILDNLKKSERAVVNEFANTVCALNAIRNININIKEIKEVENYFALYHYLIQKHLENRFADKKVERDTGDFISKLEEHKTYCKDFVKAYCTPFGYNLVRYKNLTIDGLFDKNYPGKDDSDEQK

B1: target 2 MT 5'PFS CAC 3'PFS CCU (mixed)
RNA 1: CACCCGUGCAAAAUUGCAGGGGUCUAAAACCUUCUCCAAAUUGUUUCAUCCU
RNA 2: GGGAAUGGAUCCACAUCUACGAAUUCCACAGGAUGAAACAAUUUGGAGAAGCCUAGAUCGGAAGAGCACACGU
B2: target 2 MT 5'PFS UUG 3'PFS UCU (mixed)
RNA 1: CACCCGUGCAAAAUUGCAGGGGUCUAAAACCUUCUCCAAAUUGUUUCAUCCU
RNA 2: GGGAAUGGAUCCACAUCUACGAAUUCUUGAGGAUGAAACAAUUUGGAGAAGUCUAGAUCGGAAGAGCACACGU
B3: target 2 MT 5'PFS AUC 3'PFS ACU (mixed)
RNA 1: CACCCGUGCAAAAUUGCAGGGGUCUAAAACCUUCUCCAAAUUGUUUCAUCCU
RNA 2: GGGAAUGGAUCCACAUCUACGAAUUCAUCAGGAUGAAACAAUUUGGAGAAGACUAGAUCGGAAGAGCACACGU
B4: target 2 MT 5'PFS GAC 3'PFS UGA (mixed)
RNA 1: CACCCGUGCAAAAUUGCAGGGGUCUAAAACCUUCUCCAAAUUGUUUCAUCCU
RNA 2: GGGAAUGGAUCCACAUCUACGAAUUCGACAGGAUGAAACAAUUUGGAGAAGUGAAGAUCGGAAGAGCACACGU
B5: target 2 MT 5'PFS GAC 3'PFS UGC (mixed)
RNA 1: CACCCGUGCAAAAUUGCAGGGGUCUAAAACCUUCUCCAAAUUGUUUCAUCCU
RNA 2: GGGAAUGGAUCCACAUCUACGAAUUCGACAGGAUGAAACAAUUUGGAGAAGUGCAGAUCGGAAGAGCACACGU
B6: target 1 C21U,C22U (mixed)
RNA 1: CACCCGUGCAAAAAUGCAGGGGUCUAAAACUGAGCGGAUAACCUCUCUAUGG
RNA 2: GGGAAUGGAUCCACAUCUACGAAUUCGUAUUAUAGAGAGGUUAUCCGCUCACCGAGAUCGGAAGAGCACACGU
B7: target 2 MT 5'PFS CAU 3'PFS AAU (mixed)
RNA 1: CACCCGUGCAAAAUUGCAGGGGUCUAAAACCUUCUCCAAAUUGUUUCAUCCU
RNA 2: GGGAAUGGAUCCACAUCUACGAAUUCCAUAGGAUGAAACAAUUUGGAGAAGAAUAGAUCGGAAGAGCACACGU
B8: target 2 MT 5'PFS GUA 3'PFS CCG (mixed)
RNA 1: CACCCGUGCAAAAUUGCAGGGGUCUAAAACCUUCUCCAAAUUGUUUCAUCCU
RNA 2: GGGAAUGGAUCCACAUCUACGAAUUCGUAAGGAUGAAACAAUUUGGAGAAGCCGAGAUCGGAAGAGCACACGU
B9: target 2 MT 5'PFS UUG 3'PFS UCA (mixed)
RNA 1: CACCCGUGCAAAAUUGCAGGGGUCUAAAACCUUCUCCAAAUUGUUUCAUCCU
RNA 2: GGGAAUGGAUCCACAUCUACGAAUUCUUGAGGAUGAAACAAUUUGGAGAAGUCAAGAUCGGAAGAGCACACGU
B10: target 2 MT 5'PFS AUC 3'PFS ACA (mixed)
RNA 1: CACCCGUGCAAAAUUGCAGGGGUCUAAAACCUUCUCCAAAUUGUUUCAUCCU
RNA 2: GGGAAUGGAUCCACAUCUACGAAUUCAUCAGGAUGAAACAAUUUGGAGAAGACAAGAUCGGAAGAGCACACGU
B11: target 2 MT 5'PFS CAU 3'PFS AAC (mixed)
RNA 1: CACCCGUGCAAAAUUGCAGGGGUCUAAAACCUUCUCCAAAUUGUUUCAUCCU
RNA 2: GGGAAUGGAUCCACAUCUACGAAUUCCAUAGGAUGAAACAAUUUGGAGAAGAACAGAUCGGAAGAGCACACGU
B12: target 2 MT 5'PFS CAU 3'PFS AAA (mixed)
RNA 1: CACCCGUGCAAAAUUGCAGGGGUCUAAAACCUUCUCCAAAUUGUUUCAUCCU
RNA 2: GGGAAUGGAUCCACAUCUACGAAUUCCAUAGGAUGAAACAAUUUGGAGAAGAAAAGAUCGGAAGAGCACACGU
B13: target 2 MT 5'PFS GAC 3'PFS UGU (mixed)
RNA 1: CACCCGUGCAAAAUUGCAGGGGUCUAAAACCUUCUCCAAAUUGUUUCAUCCU
RNA 2: GGGAAUGGAUCCACAUCUACGAAUUCGACAGGAUGAAACAAUUUGGAGAAGUGUAGAUCGGAAGAGCACACGU

The binders below were run against T1, EsCas13d, nuclease-dead (assay: crRNA (strand 1, pre-loaded); Mg2+; 40 mM Tris-HCl pH 7.5, 150 mM NaCl, 6 mM MgCl2, 1 mM DTT, 0.1% Tween-20, 0.2 mg/ml BSA; 25 C; 10 min per concentration, then washed). Conditions: tags: His6-TwinStrep-SUMO cleaved; N-terminal SNAP kept (SNAP-Surface 488); label: 3' end held by stalled T7 RNA polymerase.

Q: Which Kd does the source give for B1 here?
A: ~33 nM

Q: How did the Kd turn out when B2 was run?
A: 27.6 ± 3.4 nM

Q: With B3 as the binder, how does the Kd read?
A: ~41 nM

Q: For B4, which Kd is on record?
A: 12.9 ± 2 nM

Q: Which Kd does the source give for B5 here?
A: 14.4 ± 2.7 nM

Q: B6 was tested. Which Kd did it give?
A: 29 ± 4 nM

Q: How did the Kd turn out when B7 was run?
A: 4.4 ± 0.7 nM

Q: B8 was tested. Which Kd did it give?
A: 9.6 ± 0.6 nM

Q: B9 was tested. Which Kd did it give?
A: ~70 nM

Q: B10 was tested. Which Kd did it give?
A: ~70 nM

Q: B11 was tested. Which Kd did it give?
A: 4.2 ± 0.6 nM

Q: Which Kd does the source give for B12 here?
A: 4.2 ± 0.7 nM

Q: Which Kd does the source give for B13 here?
A: 23 ± 4 nM
